The record followed here is paper doi:10.1101/2024.11.11.622897.

The data set deals with T1, DdaA (A. baumannii), AbDdaA (Acinetobacter baumannii ATCC 17978, UniProt V5VBS3 1-335).
T1 sequence: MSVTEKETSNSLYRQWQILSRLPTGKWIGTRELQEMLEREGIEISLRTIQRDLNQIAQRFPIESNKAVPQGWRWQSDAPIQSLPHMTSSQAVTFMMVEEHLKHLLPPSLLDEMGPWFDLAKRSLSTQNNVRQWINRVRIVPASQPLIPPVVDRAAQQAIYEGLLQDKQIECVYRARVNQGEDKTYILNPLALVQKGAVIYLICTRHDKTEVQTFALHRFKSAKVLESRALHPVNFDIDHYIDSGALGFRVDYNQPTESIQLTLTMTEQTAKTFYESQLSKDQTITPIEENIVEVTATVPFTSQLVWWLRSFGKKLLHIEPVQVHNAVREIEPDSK
The data set is described as follows: EMSA. A general note: A gel shift assay detects complexes by their altered migration in electrophoresis.

B1: recA promoter motif WT (AR-DDRM) (dsDNA)
DNA 1: TTTCCGGTCTGGGCGACACAATATGACGTGTAATTTTAACC
DNA 2: GGTTAAAATTACACGTCATATTGTGTCGCCCAGACCGGAAA
Regarding B1, the binding result is given as “binds”.
